Data from paper PMC2711614 (The Journal of Cell Biology, 2009).

T1: His6-Hof1-C (amino acids 341–669) (S. cerevisiae, UniProt Q05080 341-669)
T1 sequence (looked up): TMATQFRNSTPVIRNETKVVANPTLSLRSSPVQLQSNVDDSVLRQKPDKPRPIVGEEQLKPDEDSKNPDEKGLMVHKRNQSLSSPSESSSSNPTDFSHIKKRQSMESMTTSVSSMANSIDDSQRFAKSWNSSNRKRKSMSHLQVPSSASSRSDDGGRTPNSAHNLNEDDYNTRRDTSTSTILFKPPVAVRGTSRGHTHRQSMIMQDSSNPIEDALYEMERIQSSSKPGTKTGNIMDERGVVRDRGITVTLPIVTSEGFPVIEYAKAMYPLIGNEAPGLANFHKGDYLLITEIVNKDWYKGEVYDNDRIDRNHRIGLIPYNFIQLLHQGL

B1: GST-Inn1-tail (amino acids 131–409), wild type (domain or fragment, S. cerevisiae, UniProt P53901 131-409, looked up)
chain: LTFTPKVPRLNRDDLNKEMDRLDSSMAMRPIPPLPTESEYDYVHGSTMRQITPQCVSTSHEDKDEGQPYRNGNVFSMSSKSDTAVLANSNDPIILPPTFSASMGTTSTLETNDTAISNTSNTKFHFANLRKLKEKINIFKNPDSSTNNCQNESNKVDIEALQKAIGVTSLSYDEDDDDDDENDAFYSSSHRVSHNYNQPPLPPIPTRDDMSNYSSSRNTPLVRRDRPSRLDSSSPNSHPHPSGLNSPKLPPLPTTSNSNFNSRKNSMSPTRKRPPPRLS

Assays:
[1] = target: B1; assay: pull-down
[2] = target: T1, His6-Hof1-C (amino acids 341–669); assay: pull-down

binding result [1] | binding result [2] | Binder
binds |  | His6-tagged Cyk3 SH3 domain fragment (amino acids 1–70) (domain or fragment, S. cerevisiae, UniProt Q07533 1-70, looked up) MATNLTSLKPPFKVKARYGWSGQTKGDLGFLEGDIMEVTRIAGSWFYGKLLRNKKCSGYFPHNFVILLEE
 | binds | B1
